Results reported in patent publication US20240109955A1.
Where two headings read alike, the source gives them in different places.

Key:
Test in all cases: cell-based or functional assay
[1] = biological target: SARS-CoV-2 Omicron BA.2.75.2 spike protein (SARS-CoV-2)
[2] = biological target: SARS-CoV-2 Omicron BF.7 spike protein (SARS-CoV-2)
[3] = biological target: SARS-CoV-2 Omicron BA.4/5 spike protein (SARS-CoV-2)
[4] = biological target: SARS-CoV-2 Omicron BQ.1 spike protein (SARS-CoV-2)
[5] = biological target: SARS-CoV-2 Omicron BQ.1.1 spike protein (SARS-CoV-2)
[6] = biological target: SARS-CoV-2 Omicron XBB spike protein (SARS-CoV-2)
[7] = biological target: SARS-CoV-2 Omicron BA.4.6 spike protein (SARS-CoV-2)
[8] = biological target: SARS-CoV-2 spike (S) protein, Omicron sublineage XBB (SARS-CoV-2)
[9] = biological target: SARS-CoV-2 spike (S) protein, Omicron sublineage BQ.1 (SARS-CoV-2)
[10] = biological target: SARS-CoV-2 spike (S) protein, Omicron sublineage BQ.1.1 (SARS-CoV-2)
[11] = biological target: SARS-CoV-2 spike (S) protein, Omicron sublineage XBB (SARS-CoV-2); remark: listed apart in the source
[12] = biological target: SARS-CoV-2 spike (S) protein, Omicron sublineage BF.7 (SARS-CoV-2)
[13] = biological target: SARS-CoV-2 spike (S) protein, Omicron sublineage XBB1.5 (SARS-CoV-2)

B1: MX1041 (bispecific antibody)
chain: QTVVTQEPSFSVSPGGTVTLTCGLSSGSVSTAYFPSWYQQTPGQAPRTLIYGTNTRSSGVPDRFSGSILGNKAALTITGAQADDESDYYCVLYMGRGIVVFGGGTKLTVLGGSSGEIVLTQSPGTLSLSPGETATLSCRASQSFSSDLAWYQQKPGQAPRLLIYGASSRATGIPDRFSGSGSGTDFTLTISRLEPADFAVYYCQQYGSSPPVTFGGGTKVEIKGGGGSGGSGSGGGGSASGSGEVQLVESGGGLIQPGGSLRLSCAASGVIVSYNYMNWVRQAPGKGLEWVSVIYSGGSTFYADSVRGRFTISRDNSKNTLYLQMNSLRAEDTAVYYCARDLGPAGAFDIWGLGTMVTVSSGGSSGQVQLVESGGGVVQPGRSLRLSCAASGFTLSSYGMHWVRQAPGKGLEWVAVISYDGSNKYYVDSVKGRFTISRDNSKNTLYLQMNSLRAEDTAVYYCRWAYWELLPDYYYGMDVWGQGTTVTVSSASGGSGDKTHTCPPCPAPELLGGPSVFLFPPKPKDTLMISRTPEVTCVVVDVSHEDPEVKFNWYVDGVEVHNAKTKPREEQYNSYVVSVLTVLHQDWLNGKEYKCKVSNKALPAPIEKTISKAKGQPREPQVYTLPPSRDELTKNQVSLTCLVKGFYPSDIAVEWESNGQPENNYKTTPPVLDSDGSFFKKLTVDKSRWQQGNVFSCSVLHEALHSHYTQKSLSLSPG
**Q.** With B1 as the binder, how does the IC50, pseudovirus neutralization [1] read?
**A.** Its IC50, pseudovirus neutralization is 0.0129 µg/mL.

**Q.** And the IC80, pseudovirus neutralization [1]?
**A.** Its IC80, pseudovirus neutralization is 0.0362 µg/mL.

**Q.** What about the IC50, pseudovirus neutralization [2] of the same binder?
**A.** The IC50, pseudovirus neutralization was 0.00835 µg/mL.

**Q.** What about the IC80, pseudovirus neutralization [2] of the same binder?
**A.** The IC80, pseudovirus neutralization was 0.0304 µg/mL.

**Q.** What about the IC50, pseudovirus neutralization [3] of the same binder?
**A.** The IC50, pseudovirus neutralization was 0.012 µg/mL.

**Q.** And the IC80, pseudovirus neutralization [3]?
**A.** Its IC80, pseudovirus neutralization is 0.0262 µg/mL.

**Q.** And the IC50, pseudovirus neutralization [4]?
**A.** Its IC50, pseudovirus neutralization is 0.0429 µg/mL.

**Q.** What about the IC80, pseudovirus neutralization [4] of the same binder?
**A.** Its IC80, pseudovirus neutralization is 0.188 µg/mL.

**Q.** What about the IC50, pseudovirus neutralization [5] of the same binder?
**A.** Its IC50, pseudovirus neutralization is 0.0493 µg/mL.

**Q.** And the IC80, pseudovirus neutralization [5]?
**A.** Its IC80, pseudovirus neutralization is 0.11 µg/mL.

**Q.** And the IC50, pseudovirus neutralization [6]?
**A.** The IC50, pseudovirus neutralization was 0.0691 µg/mL.

**Q.** And the IC80, pseudovirus neutralization [6]?
**A.** Its IC80, pseudovirus neutralization is 0.398 µg/mL.

**Q.** What about the IC50, pseudovirus neutralization [7] of the same binder?
**A.** The IC50, pseudovirus neutralization was 0.0257 µg/mL.

**Q.** And the IC80, pseudovirus neutralization [7]?
**A.** Its IC80, pseudovirus neutralization is 0.0671 µg/mL.

B2: A19-46 + E8 + B8 (protein)
VH 1: QVQLVESGGGVVQPGRSLRLSCAASGFTLSSYGMHWVRQAPGKGLEWVAVISYDGSNKYYVDSVKGRFTISRDNSKNTLYLQMNSLRAEDTAVYYCRWAYWELLPDYYYGMDVWGQGTTVTVSS
VL 1: QTVVTQEPSFSVSPGGTVTLTCGLSSGSVSTAYFPSWYQQTPGQAPRTLIYGTNTRSSGVPDRFSGSILGNKAALTITGAQADDESDYYCVLYMGRGIVVFGGGTKLTVL
VH 2: QVTLRESGPALVKPTQTLTLTCTFSGFSLSTRGVCVSWIRQPPGKALEWLAFIDWDDDKYYNTSLKTRLTISKDTSKNQVVLTMTNVHPVDTATYYCARISSHHGSSWCTTFDYWGQGALVTVSA
VL 2: DTVMTQSPLSLPVTPGEPASISCRSSQSLLNSNGYNYLDWYVQKPGQSPQLLIYLGSNRASGVPDRFSGSGSGTDFTLKISRVEAEDVGVYYCMQPLQTPLFTFGPGTKVEIK
VH 3: EVQLVESGGALIQPGGSLRLSCAASGIIVSANYMSWVRQAPGKGLEWVSVIYSGGSTFYADSVKGRFTISRDNSKNTLYLEMNSLRAEDTAVYYCARDAPILGVSDWGQGTLVTVSS
VL 3: EIVMTQSPAILSVSPGERATLSCRASQSVAINLAWYQQKPGQAPRLLIYAASSRATGIPGRFSGSGSETNFTLTISSLQSGDFAVYYCQQYITWPPSYTFGQGTKLEIK
**Q.** How did the IC50, pseudovirus neutralization [8] turn out when B2 was run?
**A.** The IC50, pseudovirus neutralization was 0.0113 µg/mL.

**Q.** And the IC80, pseudovirus neutralization [8]?
**A.** The IC80, pseudovirus neutralization was 0.0177 µg/mL.

**Q.** What about the IC50, pseudovirus neutralization [9] of the same binder?
**A.** The IC50, pseudovirus neutralization was 0.016 µg/mL.

**Q.** And the IC80, pseudovirus neutralization [9]?
**A.** The IC80, pseudovirus neutralization was 0.0522 µg/mL.

**Q.** What about the IC50, pseudovirus neutralization [10] of the same binder?
**A.** Its IC50, pseudovirus neutralization is 0.0111 µg/mL.

**Q.** And the IC80, pseudovirus neutralization [10]?
**A.** The IC80, pseudovirus neutralization was 0.017 µg/mL.

**Q.** What about the IC50, pseudovirus neutralization [11] of the same binder?
**A.** The IC50, pseudovirus neutralization was 11.3 nM.

**Q.** And the IC80, pseudovirus neutralization [11]?
**A.** Its IC80, pseudovirus neutralization is 17.7 nM.

B3: A46 + E12 + E8 (protein)
VH 1: B2 VH 1
VL 1: B2 VL 1
VH 2: EVQLVESGGGLIQPGGSLRLSCAASGVIVSYNYMNWVRQAPGKGLEWVSVIYSGGSTFYADSVRGRFTISRDNSKNTLYLQMNSLRAEDTAVYYCARDLGPAGAFDIWGLGTMVTVSS
VL 2: EIVLTQSPGTLSLSPGETATLSCRASQSFSSDLAWYQQKPGQAPRLLIYGASSRATGIPDRFSGSGSGTDFTLTISRLEPADFAVYYCQQYGSSPPVTFGGGTKVEIK
VH 3: B2 VH 2
VL 3: B2 VL 2
**Q.** Which results are given for B3?
**A.** IC50, pseudovirus neutralization [12]: 12 nM; IC80, pseudovirus neutralization [12]: 30.6 nM; IC50, pseudovirus neutralization [13]: 37.8 nM; IC80, pseudovirus neutralization [13]: 96.7 nM
